Data on two molecules can be found in patent US20180282386A1 (REGENTS OF THE UNIVERSITY OF MINNESOTA, published 2018).

In experiment [1] the target is EpCAM on HT-29 cells (human) (UniProt P16422). Nature of the experiment: flow cytometry, direct binding to CD33- EpCAM+ HT-29 cells (specificity control), 4 µg drug.
Another experiment has as its target T1, CD133 on Caco-2 cells (human, UniProt O43490 20-865).
T1 construct: whole, on cells; also called prominin-1
T1 sequence (looked up): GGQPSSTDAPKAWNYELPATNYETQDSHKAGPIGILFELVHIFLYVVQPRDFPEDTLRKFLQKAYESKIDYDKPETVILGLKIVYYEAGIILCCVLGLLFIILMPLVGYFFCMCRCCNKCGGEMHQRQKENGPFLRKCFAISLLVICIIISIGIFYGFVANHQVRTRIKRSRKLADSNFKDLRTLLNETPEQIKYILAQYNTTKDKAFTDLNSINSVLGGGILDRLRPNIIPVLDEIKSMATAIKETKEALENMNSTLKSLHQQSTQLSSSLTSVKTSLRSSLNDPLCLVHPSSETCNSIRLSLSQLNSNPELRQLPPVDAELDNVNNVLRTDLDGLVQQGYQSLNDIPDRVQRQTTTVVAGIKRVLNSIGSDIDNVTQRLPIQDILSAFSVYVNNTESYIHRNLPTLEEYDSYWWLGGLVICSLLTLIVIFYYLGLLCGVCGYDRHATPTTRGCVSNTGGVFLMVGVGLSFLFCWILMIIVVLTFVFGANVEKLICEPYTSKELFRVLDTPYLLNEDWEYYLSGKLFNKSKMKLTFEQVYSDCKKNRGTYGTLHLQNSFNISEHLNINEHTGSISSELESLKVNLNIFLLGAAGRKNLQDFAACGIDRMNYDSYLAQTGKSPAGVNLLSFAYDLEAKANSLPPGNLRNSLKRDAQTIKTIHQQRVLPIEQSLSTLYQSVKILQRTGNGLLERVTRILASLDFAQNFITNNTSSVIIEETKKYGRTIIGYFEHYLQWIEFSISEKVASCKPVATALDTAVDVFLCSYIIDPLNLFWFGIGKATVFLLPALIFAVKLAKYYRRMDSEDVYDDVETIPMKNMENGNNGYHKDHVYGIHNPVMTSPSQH
Nature of the experiment: flow cytometry on Caco-2 cells, competition with FITC-labeled 1615133 TriKE.

Chain of EpCAM on HT-29 cells (human) (P16422 24-314): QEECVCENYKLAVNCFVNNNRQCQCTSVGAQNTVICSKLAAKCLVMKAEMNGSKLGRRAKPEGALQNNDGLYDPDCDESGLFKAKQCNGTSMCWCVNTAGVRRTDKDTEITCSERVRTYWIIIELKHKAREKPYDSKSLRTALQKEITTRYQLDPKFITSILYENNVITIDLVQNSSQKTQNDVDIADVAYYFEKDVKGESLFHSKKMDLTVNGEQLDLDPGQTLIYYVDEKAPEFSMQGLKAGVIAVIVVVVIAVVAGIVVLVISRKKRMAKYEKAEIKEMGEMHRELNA

B1: 1633 bispecific killer engager (BiKE) (bispecific antibody)
chain: MEVQLVESGGGVVRPGGSLRLSCAASGFTFDDYGMSWVRQAPGKGLEWVSGINWNGGSTGYADSVKGRFTISRDNAKNSLYLQMNSLRAEDTAVYYCARGRSLLFDYWGQGTLVTVSRGGGGSGGGGSGGGGSSELTQDPAVSVALGQTVRITCQGDSLRSYYASWYQQKPGQAPVLVIYGKNNRPSGIPDRFSGSSSGNTASLTITGAQAEDEADYYCNSRDSSGNHVVFGGGTKLTVLPSGQAGAAASESLFVSNHAYQVQLVQSGAEVKKPGSSVKVSCKASGYTFTDYNMHWVRQAPGQGLEWIGYIYPYNGGTGYNQKFKSKATITADESTNTAYMELSSLRSEDTAVYYCARGRPAMDYWGQGTLVTVSSGGGGSGGGGSGGGGSDIQMTQSPSSLSASVGDRVTITCRASESVDNYGISFMNWFQQKPGKAPKLLIYAASNQGSGVPSRFSGSGSGTDFTLTISSLQPDDFATYYCQQSKEVPWTFGQGTKVEIK
modifications: FITC label (site not stated)
In turn, B1 yielded a % Positive Cells in experiment [1] of 1%.

B2: anti-CD133 scFv (scFv)
scFv: MDIVLSQSPAIMSASPGEKVTISCSASSSVSYMYWYQQKPGSSPKPWIYRTSNLASGVPARFSGSGSGTSYSLTISSMEAEDAATYYCQQYHSYPPTFGAGTKLELKSSGGGGSGGGGGGSSRSSLEVKLVESGPELKKPGETVKISCKASGYTFTDYSMHWVNQAPGKGLKWMGWINTETGEPSYADDFKGRFAFSLETSASTAYLQINNLKNEDTATYFCATDYGDYFDYWGQGTTLTVSS
notes: also called monomeric CD133 scFv; anti-CD133 scFv from clone 7
Regarding B2, in the experiment with CD133 on Caco-2 cells, the binding result is recorded as “binds”.
